Consider 27 molecules from publication PMC10786891, “Massively parallel profiling of RNA-targeting CRISPR-Cas13d”.

The chains are these.
B1: target 1 complement block 2-6 (mixed)
RNA 1: CACCCGUGCAAAAAUGCAGGGGUCUAAAACUGAGCGGAUAACCUCUCUAUGG
RNA 2: GGGAAUGGAUCCACAUCUACGAAUUCGUACCAUAGAGAGGUUAUCGCGAGACCGAGAUCGGAAGAGCACACGU
B2: target 1 del1,del13 (mixed)
RNA 1: CACCCGUGCAAAAAUGCAGGGGUCUAAAACUGAGCGGAUAACCUCUCUAUGG
RNA 2: GGGAAUGGAUCCACAUCUACGAAUUCGUACCAUAGAGAGUUAUCCGCUCCCGAGAUCGGAAGAGCACACGU
B3: target 1 insA 3' of 13,insG 3' of 10 (mixed)
RNA 1: CACCCGUGCAAAAAUGCAGGGGUCUAAAACUGAGCGGAUAACCUCUCUAUGG
RNA 2: GGGAAUGGAUCCACAUCUACGAAUUCGUACCAUAGAGAGAGUUGAUCCGCUCACCGAGAUCGGAAGAGCACACGU
B4: target 1 insA 3' of 7,insA 3' of 6 (mixed)
RNA 1: CACCCGUGCAAAAAUGCAGGGGUCUAAAACUGAGCGGAUAACCUCUCUAUGG
RNA 2: GGGAAUGGAUCCACAUCUACGAAUUCGUACCAUAGAGAGGUUAUCACAGCUCACCGAGAUCGGAAGAGCACACGU
B5: target 1 insA 3' of 17,insC 3' of 5 (mixed)
RNA 1: CACCCGUGCAAAAAUGCAGGGGUCUAAAACUGAGCGGAUAACCUCUCUAUGG
RNA 2: GGGAAUGGAUCCACAUCUACGAAUUCGUACCAUAGAAGAGGUUAUCCGCCUCACCGAGAUCGGAAGAGCACACGU
B6: target 1 del2,del13 (mixed)
RNA 1: CACCCGUGCAAAAAUGCAGGGGUCUAAAACUGAGCGGAUAACCUCUCUAUGG
RNA 2: GGGAAUGGAUCCACAUCUACGAAUUCGUACCAUAGAGAGUUAUCCGCUACCGAGAUCGGAAGAGCACACGU
B7: target 1 insU 3' of 17,insA 3' of 11 (mixed)
RNA 1: CACCCGUGCAAAAAUGCAGGGGUCUAAAACUGAGCGGAUAACCUCUCUAUGG
RNA 2: GGGAAUGGAUCCACAUCUACGAAUUCGUACCAUAGUAGAGGUAUAUCCGCUCACCGAGAUCGGAAGAGCACACGU
B8: target 1 insA 3' of 3 (mixed)
RNA 1: CACCCGUGCAAAAAUGCAGGGGUCUAAAACUGAGCGGAUAACCUCUCUAUGG
RNA 2: GGGAAUGGAUCCACAUCUACGAAUUCGUACCAUAGAGAGGUUAUCCGCUACACCGAGAUCGGAAGAGCACACGU
B9: target 1 insC 3' of 14,insG 3' of 8 (mixed)
RNA 1: CACCCGUGCAAAAAUGCAGGGGUCUAAAACUGAGCGGAUAACCUCUCUAUGG
RNA 2: GGGAAUGGAUCCACAUCUACGAAUUCGUACCAUAGAGACGGUUAUGCCGCUCACCGAGAUCGGAAGAGCACACGU
B10: target 1 A1U,U10A (mixed)
RNA 1: CACCCGUGCAAAAAUGCAGGGGUCUAAAACUGAGCGGAUAACCUCUCUAUGG
RNA 2: GGGAAUGGAUCCACAUCUACGAAUUCGUACCAUAGAGAGGUAAUCCGCUCUCCGAGAUCGGAAGAGCACACGU
B11: target 1 C7A,A9C (mixed)
RNA 1: CACCCGUGCAAAAAUGCAGGGGUCUAAAACUGAGCGGAUAACCUCUCUAUGG
RNA 2: GGGAAUGGAUCCACAUCUACGAAUUCGUACCAUAGAGAGGUUCUACGCUCACCGAGAUCGGAAGAGCACACGU
B12: target 1 insG 3' of 16,insG 3' of 8 (mixed)
RNA 1: CACCCGUGCAAAAAUGCAGGGGUCUAAAACUGAGCGGAUAACCUCUCUAUGG
RNA 2: GGGAAUGGAUCCACAUCUACGAAUUCGUACCAUAGAGGAGGUUAUGCCGCUCACCGAGAUCGGAAGAGCACACGU
B13: target 1 insG 3' of 7,insU 3' of 6 (mixed)
RNA 1: CACCCGUGCAAAAAUGCAGGGGUCUAAAACUGAGCGGAUAACCUCUCUAUGG
RNA 2: GGGAAUGGAUCCACAUCUACGAAUUCGUACCAUAGAGAGGUUAUCGCUGCUCACCGAGAUCGGAAGAGCACACGU
B14: target 1 U10A (mixed)
RNA 1: CACCCGUGCAAAAAUGCAGGGGUCUAAAACUGAGCGGAUAACCUCUCUAUGG
RNA 2: GGGAAUGGAUCCACAUCUACGAAUUCGUACCAUAGAGAGGUAAUCCGCUCACCGAGAUCGGAAGAGCACACGU
B15: target 1 U10C,U11G (mixed)
RNA 1: CACCCGUGCAAAAAUGCAGGGGUCUAAAACUGAGCGGAUAACCUCUCUAUGG
RNA 2: GGGAAUGGAUCCACAUCUACGAAUUCGUACCAUAGAGAGGGCAUCCGCUCACCGAGAUCGGAAGAGCACACGU
B16: target 1 insG 3' of 18,insU 3' of 2 (mixed)
RNA 1: CACCCGUGCAAAAAUGCAGGGGUCUAAAACUGAGCGGAUAACCUCUCUAUGG
RNA 2: GGGAAUGGAUCCACAUCUACGAAUUCGUACCAUAGGAGAGGUUAUCCGCUCUACCGAGAUCGGAAGAGCACACGU
B17: target 1 insC 3' of 12,insA 3' of 7 (mixed)
RNA 1: CACCCGUGCAAAAAUGCAGGGGUCUAAAACUGAGCGGAUAACCUCUCUAUGG
RNA 2: GGGAAUGGAUCCACAUCUACGAAUUCGUACCAUAGAGAGGCUUAUCACGCUCACCGAGAUCGGAAGAGCACACGU
B18: target 1 complement block 7-11 (mixed)
RNA 1: CACCCGUGCAAAAAUGCAGGGGUCUAAAACUGAGCGGAUAACCUCUCUAUGG
RNA 2: GGGAAUGGAUCCACAUCUACGAAUUCGUACCAUAGAGAGGAAUAGCGCUCACCGAGAUCGGAAGAGCACACGU
B19: target 1 C6G,A14C (mixed)
RNA 1: CACCCGUGCAAAAAUGCAGGGGUCUAAAACUGAGCGGAUAACCUCUCUAUGG
RNA 2: GGGAAUGGAUCCACAUCUACGAAUUCGUACCAUAGAGCGGUUAUCGGCUCACCGAGAUCGGAAGAGCACACGU
B20: target 1 U8G,A9C (mixed)
RNA 1: CACCCGUGCAAAAAUGCAGGGGUCUAAAACUGAGCGGAUAACCUCUCUAUGG
RNA 2: GGGAAUGGAUCCACAUCUACGAAUUCGUACCAUAGAGAGGUUCGCCGCUCACCGAGAUCGGAAGAGCACACGU
B21: target 1 C7U,G12A (mixed)
RNA 1: CACCCGUGCAAAAAUGCAGGGGUCUAAAACUGAGCGGAUAACCUCUCUAUGG
RNA 2: GGGAAUGGAUCCACAUCUACGAAUUCGUACCAUAGAGAGAUUAUUCGCUCACCGAGAUCGGAAGAGCACACGU
B22: target 1 insA 3' of 21,insG 3' of 1 (mixed)
RNA 1: CACCCGUGCAAAAAUGCAGGGGUCUAAAACUGAGCGGAUAACCUCUCUAUGG
RNA 2: GGGAAUGGAUCCACAUCUACGAAUUCGUACCAAUAGAGAGGUUAUCCGCUCAGCCGAGAUCGGAAGAGCACACGU
B23: target 1 insC 3' of 5,insC 3' of 3 (mixed)
RNA 1: CACCCGUGCAAAAAUGCAGGGGUCUAAAACUGAGCGGAUAACCUCUCUAUGG
RNA 2: GGGAAUGGAUCCACAUCUACGAAUUCGUACCAUAGAGAGGUUAUCCGCCUCCACCGAGAUCGGAAGAGCACACGU
B24: target 1 A1C,U10A (mixed)
RNA 1: CACCCGUGCAAAAAUGCAGGGGUCUAAAACUGAGCGGAUAACCUCUCUAUGG
RNA 2: GGGAAUGGAUCCACAUCUACGAAUUCGUACCAUAGAGAGGUAAUCCGCUCCCCGAGAUCGGAAGAGCACACGU
B25: target 1 insG 3' of 16,insA 3' of 11 (mixed)
RNA 1: CACCCGUGCAAAAAUGCAGGGGUCUAAAACUGAGCGGAUAACCUCUCUAUGG
RNA 2: GGGAAUGGAUCCACAUCUACGAAUUCGUACCAUAGAGGAGGUAUAUCCGCUCACCGAGAUCGGAAGAGCACACGU
B26: target 1 C2G,A20U (mixed)
RNA 1: CACCCGUGCAAAAAUGCAGGGGUCUAAAACUGAGCGGAUAACCUCUCUAUGG
RNA 2: GGGAAUGGAUCCACAUCUACGAAUUCGUACCUUAGAGAGGUUAUCCGCUGACCGAGAUCGGAAGAGCACACGU
B27: target 1 A1G,U10A (mixed)
RNA 1: CACCCGUGCAAAAAUGCAGGGGUCUAAAACUGAGCGGAUAACCUCUCUAUGG
RNA 2: GGGAAUGGAUCCACAUCUACGAAUUCGUACCAUAGAGAGGUAAUCCGCUCGCCGAGAUCGGAAGAGCACACGU

The data set deals with T1, EsCas13d, nuclease-dead (Eubacterium siraeum, UniProt B0MS50, R295A;H300A;R849A;H854A).
T1 sequence: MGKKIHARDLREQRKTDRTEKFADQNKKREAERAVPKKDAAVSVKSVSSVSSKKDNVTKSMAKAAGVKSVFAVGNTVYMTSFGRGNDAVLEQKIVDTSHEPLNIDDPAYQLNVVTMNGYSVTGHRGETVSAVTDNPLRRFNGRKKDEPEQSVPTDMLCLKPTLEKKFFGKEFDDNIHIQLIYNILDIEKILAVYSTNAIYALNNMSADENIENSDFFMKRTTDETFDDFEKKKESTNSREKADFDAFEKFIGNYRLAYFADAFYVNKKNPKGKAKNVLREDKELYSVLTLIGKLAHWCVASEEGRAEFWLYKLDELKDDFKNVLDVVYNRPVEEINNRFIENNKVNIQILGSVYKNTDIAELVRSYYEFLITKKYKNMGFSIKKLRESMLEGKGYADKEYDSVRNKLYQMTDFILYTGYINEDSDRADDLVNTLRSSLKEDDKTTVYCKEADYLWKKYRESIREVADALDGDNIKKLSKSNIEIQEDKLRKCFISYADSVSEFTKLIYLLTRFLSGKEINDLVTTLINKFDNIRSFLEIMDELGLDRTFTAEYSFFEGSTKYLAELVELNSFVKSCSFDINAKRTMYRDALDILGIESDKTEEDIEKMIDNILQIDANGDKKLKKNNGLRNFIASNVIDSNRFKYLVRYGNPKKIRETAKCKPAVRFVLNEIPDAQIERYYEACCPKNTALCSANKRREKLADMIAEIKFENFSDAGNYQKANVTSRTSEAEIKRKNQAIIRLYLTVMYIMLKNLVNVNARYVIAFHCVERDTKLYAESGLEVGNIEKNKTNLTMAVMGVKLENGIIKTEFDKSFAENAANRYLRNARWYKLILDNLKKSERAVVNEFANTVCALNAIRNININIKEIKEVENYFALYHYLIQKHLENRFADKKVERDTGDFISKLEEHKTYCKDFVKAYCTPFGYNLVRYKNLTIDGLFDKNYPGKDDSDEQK
As to the kind of experiment: crRNA (strand 1, pre-loaded); Mg2+; 40 mM Tris-HCl pH 7.5, 150 mM NaCl, 6 mM MgCl2, 1 mM DTT, 0.1% Tween-20, 0.2 mg/ml BSA; 25 C; 10 min per concentration, then washed. The note with it: tags: His6-TwinStrep-SUMO cleaved; N-terminal SNAP kept (SNAP-Surface 488); label: 3' end held by stalled T7 RNA polymerase.
The Kd is a measure of binding affinity in units of concentration. Higher therefore signals a looser complex. In turn, B1 showed an equilibrium dissociation constant (Kd) of 12.3 ± 0.5 nM. Next, B2: 25 ± 4 nM. Under B3 stands 7.2 ± 0.5 nM; under B4, 7.46 ± 0.33 nM; under B5, 32.2 ± 2.7 nM. Under B6 stands 11.7 ± 0.4 nM; under B7, 28 ± 7 nM; under B8, 8.8 ± 0.4 nM. As to B9, binding was characterised by a dissociation constant (Kd) of 65 ± 11 nM. The molecule B10 came in with a dissociation constant (Kd) of 8.8 ± 0.4 nM. Next, B11: 13.6 ± 0.9 nM; B12: 23.1 ± 1.9 nM; B13: 8.24 ± 0.34 nM.

With B14, the Kd is 9.3 ± 0.6 nM. B15 gave a Kd of 29.2 ± 2.6 nM. Next, B16: 84 ± 26 nM; B17: 12.7 ± 0.5 nM. Consider B18, for which binding was put at a Kd of 13.3 ± 0.6 nM. On to B19, for which the Kd was 13.4 ± 0.4 nM.

In turn, B20 showed a Kd of 11 ± 0.6 nM. The Kd values of the last two molecules are within 1.5-fold of each other. Under B21 stands 6.9 ± 0.4 nM. B22 had a Kd of 15.5 ± 0.8 nM. Next, B23: 22.3 ± 1.8 nM; B24: 26.2 ± 2.2 nM; B25: 19.7 ± 1 nM.

Regarding B26, the Kd was determined as 39 ± 7 nM. Under B27 stands 8.5 ± 0.6 nM.
